According to patent US20080214461:
Positions count from the first letter of the chain named. Names and notes keep the numbering of the source.

B1: FIX-Y94F/K98T/Y177F (recombinant, full length, HEK 293), activated form (protein)
chain: YNSGKLEEFVQGNLERECMEEKCSFEEAREVFENTERTTEFWKQYVDGDQCESNPCLNGGSCKDDINSYECWCPFGFEGKNCELDVTCNIKNGRCEQFCKNSADNKVVCSCTEGYRLAENQKSCEPAVPFPCGRVSVSQTSKLTRAEAVFPDVDYVNSTEAETILDNITQSTQSFNDFTRVVGGEDAKPGQFPWQVVLNGKVDAFCGGSIVNEKWIVTAAHCVETGVKITVVAGEHNIEETEHTEQKRNVIRIIPHHNFNAAINTYNHDIALLELDEPLVLNSYVTPICIADKEYTNIFLKFGSGYVSGWGRVFHKGRSALVLQYLRVPLVDRATCLRSTKFTIFNNMFCAGFHEGGRDSCQGDSGGPHVTEVEGTSFLTGIISWGEECAMKGKYGIYTKVSRYVNWIKEKTKLT
B2: FIX-Y94F/A95aK/K98T/Y177F (recombinant, full length, HEK 293), activated form (protein)
chain: B1 chain with A261K
B3: FIX-Y94F/A95aK/K98T/Y177F/I213V/E219G (recombinant, full length, HEK 293), activated form (protein)
chain: B1 chain with A261K, I383V, E388G
B4: FIX-Y94F/K98T/Y177F/I213V/E219G (recombinant, full length, HEK 293), activated form (protein)
chain: B1 chain with I383V, E388G

Molecular target: T1, activated factor VIII (FVIIIa): Recombinate Antihemophilic Factor activated with thrombin, P00451
T1 chain: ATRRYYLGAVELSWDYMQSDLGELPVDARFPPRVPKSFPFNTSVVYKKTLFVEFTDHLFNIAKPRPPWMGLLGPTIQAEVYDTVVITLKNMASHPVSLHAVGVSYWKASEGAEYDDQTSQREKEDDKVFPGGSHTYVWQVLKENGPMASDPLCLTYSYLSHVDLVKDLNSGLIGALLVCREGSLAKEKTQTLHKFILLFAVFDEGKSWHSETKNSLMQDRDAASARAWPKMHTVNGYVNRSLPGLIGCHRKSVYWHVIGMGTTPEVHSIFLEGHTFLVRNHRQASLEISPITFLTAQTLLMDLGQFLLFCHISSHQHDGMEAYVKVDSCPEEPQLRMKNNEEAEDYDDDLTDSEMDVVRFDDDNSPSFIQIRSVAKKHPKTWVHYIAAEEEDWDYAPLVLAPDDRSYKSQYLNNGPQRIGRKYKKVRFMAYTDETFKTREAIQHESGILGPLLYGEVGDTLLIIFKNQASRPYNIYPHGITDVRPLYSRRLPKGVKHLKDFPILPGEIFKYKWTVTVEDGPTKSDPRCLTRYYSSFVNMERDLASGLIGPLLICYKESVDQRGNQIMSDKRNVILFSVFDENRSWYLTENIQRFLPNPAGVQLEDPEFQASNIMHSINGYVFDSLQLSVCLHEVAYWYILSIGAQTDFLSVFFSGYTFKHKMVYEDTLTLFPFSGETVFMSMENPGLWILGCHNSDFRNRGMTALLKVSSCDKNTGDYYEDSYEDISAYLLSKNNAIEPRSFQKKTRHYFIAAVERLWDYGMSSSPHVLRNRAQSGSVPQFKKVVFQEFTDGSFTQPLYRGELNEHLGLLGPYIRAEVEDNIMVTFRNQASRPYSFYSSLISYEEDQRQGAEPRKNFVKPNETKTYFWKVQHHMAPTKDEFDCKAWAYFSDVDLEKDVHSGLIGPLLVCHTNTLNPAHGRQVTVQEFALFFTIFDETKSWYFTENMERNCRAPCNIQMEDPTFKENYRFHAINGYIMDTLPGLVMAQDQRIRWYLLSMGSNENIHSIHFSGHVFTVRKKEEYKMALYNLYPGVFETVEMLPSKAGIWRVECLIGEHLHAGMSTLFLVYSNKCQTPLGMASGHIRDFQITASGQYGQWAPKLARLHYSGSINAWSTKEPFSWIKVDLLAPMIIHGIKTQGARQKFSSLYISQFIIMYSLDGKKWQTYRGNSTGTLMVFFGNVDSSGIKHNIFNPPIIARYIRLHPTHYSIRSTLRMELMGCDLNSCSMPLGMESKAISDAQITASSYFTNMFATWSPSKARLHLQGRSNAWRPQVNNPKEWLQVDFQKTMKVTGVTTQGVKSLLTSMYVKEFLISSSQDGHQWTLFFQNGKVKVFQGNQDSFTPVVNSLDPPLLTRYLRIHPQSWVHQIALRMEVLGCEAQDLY

Row | Protein | ratio kcat/KM +/- FVIIIa (FX activation)
1 | B1 | 16,424
2 | B2 | 5,705
3 | B3 | 8,354
4 | B4 | 9,581

Molecular target: factor X (FX), P00742
Sequence (P00742 whole entry, looked up): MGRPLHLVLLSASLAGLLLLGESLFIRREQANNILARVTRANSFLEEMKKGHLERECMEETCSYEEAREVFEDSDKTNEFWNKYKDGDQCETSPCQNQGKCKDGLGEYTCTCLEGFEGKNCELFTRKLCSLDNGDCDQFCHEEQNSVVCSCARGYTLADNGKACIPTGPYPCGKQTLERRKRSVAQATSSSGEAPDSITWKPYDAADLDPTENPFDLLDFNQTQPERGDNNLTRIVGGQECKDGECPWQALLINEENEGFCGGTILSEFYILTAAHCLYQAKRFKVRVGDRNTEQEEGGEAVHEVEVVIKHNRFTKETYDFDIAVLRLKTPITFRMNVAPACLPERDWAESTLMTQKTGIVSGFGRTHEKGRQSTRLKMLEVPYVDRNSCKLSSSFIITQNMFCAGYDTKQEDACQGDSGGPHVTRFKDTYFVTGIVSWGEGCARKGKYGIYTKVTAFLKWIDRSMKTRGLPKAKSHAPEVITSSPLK

Row | Protein | KM (nM), FX activation with FVIIIa [nM] | KM (nM), FX activation without FVIIIa [nM] | kcat (10^-3 min^-1), FX activation without FVIIIa [s⁻¹] | kcat (min^-1), FX activation with FVIIIa [min⁻¹] | kcat/KM (10^-6 nM^-1 min^-1), FX activation without FVIIIa [M⁻¹ s⁻¹] | kcat/KM (nM^-1 min^-1), FX activation with FVIIIa [M⁻¹ s⁻¹] | rate of FX activation against pdFIXa | fold increase of kcat of FX activation against pdFIX
5 | B1 | 14 | 68 | 0.000333 | 68 | 4880 | 8.33e+07 | FIX-WT and FIX-Y94F/K98T/Y177F activated FX at the same rate as pdFIXa | 
6 | B2 | 20 | 73 | 6.67e-05 | 7 | 950 |  |  | 
7 | B3 | 13 | 55 | 0.00102 | 122 | 18200 | 1.5e+08 |  | enhanced the kcat by a factor of 17 and 6, respectively
8 | B4 | 17 | 40 | 0.00222 | 528 | 54900 | 5.33e+08 |  | enhanced the kcat by a factor of 17 and 6, respectively
